Measured values published in publication PMC6249382, “The Maize Sulfite Reductase Is Involved in Cold and Oxidative Stress Responses” (Frontiers in Plant Science, 2018).

Substrate: O=S(O)O
Experiment: steady-state kinetics, Lineweaver-Burk plot
Type: biochemical, Zea mays
Details: 400 μM NADPH as electron donor (printed "electron acceptor"); sulfite 2.5-400 μM; 1.0 μg enzyme

B1: ZmSiR (Zea mays) (protein)
chain: MSGAIGGAEVHGFRGAAAQLPRSRVLGRPIRVAPPAAARPGGASAGSIRAVSAPAKKDASEVKRSKVEIIKEKSNFLRYPLNEELVSEAPNINESAVQLIKFHGSYQQTDRDVRGQKNYSFMLRTKNPCGKVPNQLYLAMDTLADEFGIGTLRLTTRQTFQLHGVLKKNLKTVLSTVIKNMGSTLGACGDLNRNVLAPAAPYVKKDILFAQQTAENIAALLTPQSGAYYDLWVDGEKIMSAEEPPEVTKARNDNSHGTNFPDSPEPIYGTQYLPRKFKVAVTAAGDNSVDILTNDIGVVVVSDDAGEPIGFNIYVGGGMGRTHRVETTFPRLADPLGYVPKEDILYAIKAIVVTQRENGRRDDRKYSRMKYMIDRWGIDRFRAEVEKYYGKKFESFRPLPEWQFNSYLGWQEQGDGKLFYGVHVDNGRVGGQAKKTLREIIEKYNLDVSITPNQNLILCGIDQAWREPITTALAQAGLLEPKDVDPLNLTAMACPALPLCPLAQTEAERGILPILKRIRAVFNKVGIKDSESVVVRITGCPNGCARPYMAELGFVGDGPKSYQIWLGGTPNQSTLAESFMDKVKLDDIEKVLEPLFTYWNGTRQEGESFGSFTNRTGFDKLKEVVNKWAESPSAA
For B1, the Km was 5.32 ± 0.26 µM.
